Legend:
Kasumi-2 = assay: In vitro cell viability assay (Cell Titre Glo), VNAR drug conjugates: Kasumi-2; type: cell-based, human
Description: (§1) In Vitro Cell Viability Assays for Cancer Cells Treated with Anti ROR1 VNAR Drug Conjugates
(§2) Cells were seeded into white, clear bottom 96 well plates (Costar) and incubated at 37° C., 5% CO2 for 24 hours. On the following day, dilution series were set up for each test agent at ×10 working stocks. The dose response ×10 stock was: 10000, 5000, 1000, 500, 100, 50, 10, 5, 1, 0.5 nM etc. 10 μL of the ×10 stock solutions were added to the cell plates (90 μl per well) using a multichannel pipette. […] 100d of vehicle control (PBS) was added to the control wells (columns 11 and 12). Plates were incubated at 37′C, 5% CO2 for 72-96 hours. Promega Cell litre Glo reagent was used as per the manufacturer's instructions to assess cell viability. Briefly, assay plates were removed from incubator and allowed to equilibrate to room temperature before adding […] of room temperature Cell litre Glo reagent to each 100 μl assay well. Plates were placed on a plate shaker for 2 minutes at 600 rpm. Plates were allowed to sit for a further 10 minutes at room temperature prior to measuring luminescence read-out using a Clariostar plate-reader (BMG). Data was analysed by calculating the average for untreated (vehicle only) control wells and determining the % of control for each treated well. % of control data was then plotted against Log [Treatment] concentration and the IC50 value derived using non-linear regression fitting in GraphPad Prism software.
(§3) The following cell lines were used: • Kasumi-2—human B cell leukaemia precursor; • PA-1—human ovarian cancer cell line; • PA-1 ROR1 ko—human ovarian cancer cell line with ROR1 knock-out; • 697—human B cell leukaemia precursor, and • MHH-ES1—human Ewing's sarcoma cell line.

[1] = Mouse plasma stability of protein-PNU conjugates (LC-MS of released payload); type: in vitro ADME; conditions: 37° C., 4 μM protein
Description: (§4) Different P3A1-hFc-PNU conjugates were incubated at 37° C. in mouse plasma at a final concentration of 4 μM of protein. Samples were analysed by LC-MS as a function of time and the amount of released PNU159682 and EDA-PNU159682 derivative was quantified by reference to calibration standards.

Cathepsin B = Cathepsin B (Homo sapiens, UniProt P07858); assay: Cathepsin B treatment of protein-PNU conjugates, payload release; type: in vitro ADME; conditions: after treatment with Cat B
From the text: Cathepsin B treatment of VNAR-hFc-vc-PAB-EDA-PNU conjugates and the corresponding conjugates of the multimeric proteins liberated free EDA-PNU159682 derivative in a quantitative fashion. Whereas, VNAR-hFc-va-EDA-PNU conjugates and the corresponding conjugates of the multimeric proteins were completely stable to Cathepsin B treatment.
Only the vc-PAB-EDA-PNU releases payload on treatment with CatB as expected for the conditions used in this in vitro assay. The release is quantitative—as the conjugates have a drug to antibody ratio of 2, then twice the concentration of payload released versus the concentration of conjugate is expected after CatB treatment. This expectation matches the data shown in Table 11 for vc-PAB-EDA-PNU conjugates.

PA-1 ROR1 ko = assay: In vitro cell viability assay (Cell Titre Glo), VNAR drug conjugates: PA-1 ROR1 ko; type: cell-based, human
Description: as §1, §2, §3

[2] = Human plasma stability of protein-PNU conjugates (LC-MS of released payload); type: in vitro ADME; conditions: 37° C., up to 168 h, 4 or 2 uM PDC, LLOQ 0.1 or 0.156 uM
Description: as §4, with “Different” for “Different P3A1-hFc-PNU”, “C. for 168 h” for “C.”, “human” for “mouse”, “4 μM or 2” for “4”, “time up to and including 168 h” for “time”

PA-1 = assay: In vitro cell viability assay (Cell Titre Glo), VNAR drug conjugates: PA-1; type: cell-based, human
Description: as §1, §2, §3

MHH-ES1 = assay: In vitro cell viability assay (Cell Titre Glo), VNAR drug conjugates: MHH-ES1; type: cell-based, human
Description: as §1, §2, §3

697 = assay: In vitro cell viability assay (Cell Titre Glo), VNAR drug conjugates: 697; type: cell-based, human
Description: as §1, §2, §3

ROR1 = ROR1 (Homo sapiens, UniProt Q01973); conditions: VNAR domain; data in WO 2019/122447; cited from earlier work
[3] = ratio to corresponding non-binding 2V-hFc conjugate

B1: P3A1hFc-PEG4-va-EDA-PNU (conjugate)
chain: TRVDQTPRTATKETGESLTINCVLTDTSYGLYSTSWFRKNPGTTDWERMSIGGRYVESVNKGAKSFSLRIKDLTVADSATYYCKAREARHPWLRQWYDGAGTVLTVNGGGGSGGGGSGGGGS
modifications: left off: a dimerising Fc or GST
Kasumi-2; Table 5, 96 h
  IC50: 2.3 nM
Kasumi-2; [3]
  ROR1 targeting/2V non-targeting window Kasumi-2: 43
[1]; 4 h
  Concentration (nM) of free PNU payload detected by LC-MS, 4 h: 3 nM
[1]; 24 h
  Concentration (nM) of free PNU payload detected by LC-MS, 24 h: 4 nM
[1]; 48 h
  Concentration (nM) of free PNU payload detected by LC-MS, 48 h: 1 nM
[1]; 72 h
  Concentration (nM) of free PNU payload detected by LC-MS, 72 h: 2 nM
[1]; 96 h
  Concentration (nM) of free PNU payload detected by LC-MS, 96 h: 5 nM
[1]; 120 h
  Concentration (nM) of free PNU payload detected by LC-MS, 120 h: 3 nM
Cathepsin B; figure in brackets
  EDA released, per cent of theoretical conc of payload: 1.7%
Cathepsin B; protein 10 uM (2VhFc conjugate 5 uM)
  Average Conc EDA Released: 0.36 µM
PA-1 ROR1 ko; Table 5, 96 h, PA-1 ROR1 ko
  IC50: 11.3 nM
PA-1 ROR1 ko; ratio to corresponding non-binding 2V-hFc conjugate, PA-1 31-J-06 (ROR1 −/−; matches PA-1 ROR1 ko of Table 5)
  ROR1 targeting/2V non-targeting window PA-1 31-J-06: 4
[2]
  Observed EDA payload release: no EDA-PNU detected at any time points
PA-1; Table 5, 96 h
  IC50: 0.15 nM
PA-1; [3]
  ROR1 targeting/2V non-targeting window PA-1: 360
MHH-ES1; Table 5, 96 h
  IC50: 18 nM
MHH-ES1; [3]
  ROR1 targeting/2V non-targeting window MHH-ES1: 8.4
697; Table 5, 96 h
  IC50: 61 nM
697; [3]
  ROR1 targeting/2V non-targeting window 697: 4

B2: P3A1: VNAR domain, SEQ ID NO: 43 (protein)
VHH: TRVDQTPRTATKETGESLTINCVLTDTSYGLYSTSWFRKNPGTTDWERMSIGGRYVESVNKGAKSFSLRIKDLTVADSATYYCKAREARHPWLRQWYDGAGTVLTVN
ROR1
  binding to ROR1: bind to ROR1

Reference: patent US20230241072A1, “ANTHRACYCLINE DERIVATIVES” (ALMAC DISCOVERY LIMITED, priority 2019, published 2023)
